B1: F11 IgA1 polymer (antibody, V domains shown)
VH: QVQLVQSGAEVKRPGSSVRVSCRTSGGSFTSFAISWVRQAPGQGLEWMGRITRILGVPNYAQKFQGRVTITADMPTTTAYLDLTNLRSEDTAVYYCARDSGTSHGDFDYWGQGTLVTVSS
VL: EIVLTQSPVTLSLSPGERATLSCRASQNVINSLVWYQQKPGQAPRLLIYGASNRATGIPARFRGSGSGTDFTLTIDSLEPEDIAVYYCQQRGTWLWSFGQGTKVEIK
B2: F11 IgA1 monomer (antibody, V domains shown)
VH: B1 VH
VL: B1 VL
B3: F11 IgA2m2 monomer (antibody, V domains shown)
VH: B1 VH
VL: B1 VL
B4: F11 IgA2m2 polymer (antibody, V domains shown)
VH: B1 VH
VL: B1 VL

Molecular target: recombinant trimeric HA of A/Puerto Rico/8/1934 (H1N1) (influenza A virus A/Puerto Rico/8/1934 …, UniProt P03452)
Sequence (P03452 18-528): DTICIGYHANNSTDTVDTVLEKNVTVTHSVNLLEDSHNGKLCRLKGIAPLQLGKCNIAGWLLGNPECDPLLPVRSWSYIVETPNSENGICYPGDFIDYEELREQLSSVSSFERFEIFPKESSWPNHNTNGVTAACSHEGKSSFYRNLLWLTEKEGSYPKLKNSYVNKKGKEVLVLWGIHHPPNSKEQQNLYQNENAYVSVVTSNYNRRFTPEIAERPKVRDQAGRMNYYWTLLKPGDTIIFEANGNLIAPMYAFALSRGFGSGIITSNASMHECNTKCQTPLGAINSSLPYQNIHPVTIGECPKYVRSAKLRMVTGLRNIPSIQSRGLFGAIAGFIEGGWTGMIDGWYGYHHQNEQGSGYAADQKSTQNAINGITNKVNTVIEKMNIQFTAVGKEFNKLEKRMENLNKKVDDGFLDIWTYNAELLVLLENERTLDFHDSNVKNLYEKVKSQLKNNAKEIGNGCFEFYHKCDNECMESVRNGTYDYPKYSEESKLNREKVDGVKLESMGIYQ
Assay: cell-based or functional assay

| Binder | HI activity, minimum HI concentration, PR8 virus | NI activity, EC50 (NI-ELLA), PR8 virus | NT activity, minimum virus-neutralizing concentration, PR8 virus |
| --- | --- | --- | --- |
| B1 | 500 µg/mL | 0.222 mg/L | 25 µg/mL |
| B2 | 354 µg/mL | 0.301 mg/L | 50 µg/mL |
| B3 | 500 µg/mL | 0.683 mg/L | 89.1 µg/mL |
| B4 | 500 µg/mL | 0.418 mg/L | 50 µg/mL |

Reference: PMC7790537 (PLoS ONE, 2021)
